Assay results reported in patent US20120124684A1.

Target: purified glutathione reductase (GR)
Assay: cell-based or functional assay

GR activity in vitro (purified GR with purified αBC, compared to a BSA control; proteins added at a 1:4 molar ratio to GR): 18%
Substance: purified αBC
